Test results as given in the RNAGym collection of RNA variant scans (doi:10.1093/molbev/msab373).

B1: Azoarcus group I ribozyme (parent)
chain: GUGCCUUGCGCCGGGAAACCACGCAAGGGAUGGUGUCAAAUUCGGCGAAACCUAAGCGCCCGCCCGGGCGUAUGGCAACGCCGAGCCAAGCUUCGGCGCCUGCGCCGAUGAAGGUGUAGAGACUAGACGGCACCCACCUAAGGCAAACGCUAUGGUGAAGGCAUAGUCCAGGGAGUGGCGAAAGUCACACAAACCGG

Variants of: B1
Assay: reverse-splicing fitness (ratio to wild type); higher = more active; in vitro selection; Mg2+ level not given
Outline: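 An in vitro group I ribozyme library with randomized positions was T7-transcribed and gel-purified. In triplicate, 10 pmol RNA in EPPS pH 7.5 was reacted with 50 pmoles of a 30-nt RNA substrate for 1 h at 37 °C across several added MgCl2 levels (1–48 mM), then stopped with EDTA. Products were reverse transcribed from a substrate-complementary primer, PCR-amplified and sequenced (HiSeq 4000). Fitness is a variant's read proportion after selection over that before, normalised to wild type.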

| Variant | reverse-splicing fitness |
| --- | --- |
| C82A A120U A145U C169G | 0.00509 |
| C82A A120U A145U C150U C169G U176A | 0.00257 |
| C82A A120U A145U C150U C169G U176G | 0.00197 |
| C82A A120U A145U C150U C169G U176C | 0.00288 |
| C82A A120U A145U C150G C169G U176C | 0.00221 |
| C82A A120U A145U C150G C169G U176G | 0.00188 |
| C82A A120U A145U C150G C169G U176A | 0.00253 |
| C82A A120U A145G C150G U176G | 0.00433 |
| C82A A120U A145G C150G U176A | 0.00758 |
| C82A A120U A145G C150G U176C | 0.0117 |
| C82A A120U C150U C169A U176G | 0.00226 |
| C82A A120U C150U C169A U176A | 0.00392 |
| C82A A120U C150U C169A U176C | 0.00357 |
| C82A A120U A145U C150A C169A U176A | 0.0022 |
| C82A A120U A145U C150A C169A U176C | 0.00188 |
| C82A A120U A145U C150A C169A U176G | 0.00186 |
| C82A A120U C169A U176C | 0.00197 |
| C82A A120U C169A U176G | 0.00137 |
| C82A A120U C169A U176A | 0.00254 |
| C82A A120U A145U C150U C169A U176C | 0.00272 |
| C82A A120U A145U C150U C169A U176G | 0.00171 |

| Variant | reverse-splicing fitness |
| --- | --- |
| C82A A120U A145U C150U C169A U176A | 0.00275 |
| C82A A120U A145U C150G C169A U176A | 0.00324 |
| C82A A120U A145U C150G C169A U176G | 0.00201 |
| C82A A120U A145U C150G C169A U176C | 0.00214 |
| C82A A120U A145U C169A U176G | 0.00177 |
| C82A A120U A145U C169A U176C | 0.00182 |
| C82A A120U A145U C169A U176A | 0.00216 |
| C82A A120U A145G C169U U176G | 0.00139 |
| C82A A120U A145G C169U U176A | 0.00354 |
| C82A A120U A145G C169U U176C | 0.00364 |
| C82A A120U C150G C169A U176A | 0.00498 |
| C82A A120U C150G C169A U176G | 0.00312 |
| C82A A120U C150G C169A U176C | 0.00411 |
| C82A A120U A145G C150G C169G U176G | 0.00415 |
| C82A A120U A145G C150G C169G U176C | 0.00694 |
| C82A A120U A145G C150G C169G U176A | 0.00824 |
| C82A A120U A145G C150U C169U U176G | 0.00226 |
| C82A A120U A145G C150U C169U U176C | 0.00493 |
| C82A A120U A145G C150U C169U U176A | 0.00414 |
| C82A A120U A145G U176G | 0.0073 |
| C82A A120U A145G U176C | 0.0599 |

| Variant | reverse-splicing fitness |
| --- | --- |
| C82A A120U A145G U176A | 0.0348 |
| C82A A120U A145G C169A | 0.00287 |
| C82A A120U A145G C169G | 0.00528 |
| C82A A120U A145G C169U | 0.0064 |
| C82A A120U A145G C150U | 0.116 |
| C82A A120U C150A C169U U176A | 0.00391 |
| C82A A120U C150A C169U U176G | 0.00215 |
| C82A A120U C150A C169U U176C | 0.00414 |
| C82A A120U C150U C169G U176G | 0.00165 |
| C82A A120U C150U C169G U176A | 0.00534 |
| C82A A120U C150U C169G U176C | 0.00363 |
| C82A A120U A145U C150G U176G | 0.00318 |
| C82A A120U A145U C150G U176A | 0.00533 |
| C82A A120U A145U C150G U176C | 0.00823 |
| C82A A120U A145U C169G U176C | 0.00254 |
| C82A A120U A145U C169G U176G | 0.00116 |
| C82A A120U A145U C169G U176A | 0.00173 |
| C82A A120U C150G C169A | 0.00708 |
| C82A A120U C150G C169U | 0.00543 |
| C82A A120U C150G C169G | 0.00634 |
| C82A A120U A145U C150U C169U U176C | 0.00354 |

| Variant | reverse-splicing fitness |
| --- | --- |
| C82A A120U A145U C150U C169U U176G | 0.00221 |
| C82A A120U A145U C150U C169U U176A | 0.00274 |
| C82A A120U A145U C150A C169U U176C | 0.0026 |
| C82A A120U A145U C150A C169U U176G | 0.00196 |
| C82A A120U A145U C150A C169U U176A | 0.00228 |
| C82A A120U A145U C150G C169U U176G | 0.0021 |
| C82A A120U A145U C150G C169U U176A | 0.0025 |
| C82A A120U A145U C150G C169U U176C | 0.00262 |
| C82A A120U A145U C169U U176C | 0.00276 |
| C82A A120U A145U C169U U176A | 0.00202 |
| C82A A120U A145U C169U U176G | 0.00154 |
| C82A A120U A145U | 0.148 |
| C82A A120U C150U C169G | 0.00546 |
| C82A A120U C150U C169U | 0.00643 |
| C82A A120U C150U C169A | 0.00439 |
| C82A A120U A145U C150A C169G U176A | 0.00237 |
| C82A A120U A145U C150A C169G U176C | 0.00266 |
| C82A A120U A145U C150A C169G U176G | 0.00136 |
| C82A A120U C150U | 0.0723 |
| C82A A120U C150A | 0.016 |
| C82A A120U C150G | 0.0131 |
